According to article PMC3102714, “OsSpo11-4, a Rice Homologue of the Archaeal TopVIA Protein, Mediates Double-Strand DNA Cleavage and Interacts with OsTopVIB” (PLoS ONE, 2011):

Target: T1, GST-OsTopVIB fusion protein (Oryza sativa L. ssp. japonica, UniProt Q6H442 1-696)
T1 construct: OsTopVIB, Oryza sativa L. ssp. japonica; ORF amplified with primers P17 and P18, cloned BamHI/BglII into pESP-2; fusion about 103 kD; also called OsTopVIB-GST fusion; GST-TopVIB
T1 sequence (looked up): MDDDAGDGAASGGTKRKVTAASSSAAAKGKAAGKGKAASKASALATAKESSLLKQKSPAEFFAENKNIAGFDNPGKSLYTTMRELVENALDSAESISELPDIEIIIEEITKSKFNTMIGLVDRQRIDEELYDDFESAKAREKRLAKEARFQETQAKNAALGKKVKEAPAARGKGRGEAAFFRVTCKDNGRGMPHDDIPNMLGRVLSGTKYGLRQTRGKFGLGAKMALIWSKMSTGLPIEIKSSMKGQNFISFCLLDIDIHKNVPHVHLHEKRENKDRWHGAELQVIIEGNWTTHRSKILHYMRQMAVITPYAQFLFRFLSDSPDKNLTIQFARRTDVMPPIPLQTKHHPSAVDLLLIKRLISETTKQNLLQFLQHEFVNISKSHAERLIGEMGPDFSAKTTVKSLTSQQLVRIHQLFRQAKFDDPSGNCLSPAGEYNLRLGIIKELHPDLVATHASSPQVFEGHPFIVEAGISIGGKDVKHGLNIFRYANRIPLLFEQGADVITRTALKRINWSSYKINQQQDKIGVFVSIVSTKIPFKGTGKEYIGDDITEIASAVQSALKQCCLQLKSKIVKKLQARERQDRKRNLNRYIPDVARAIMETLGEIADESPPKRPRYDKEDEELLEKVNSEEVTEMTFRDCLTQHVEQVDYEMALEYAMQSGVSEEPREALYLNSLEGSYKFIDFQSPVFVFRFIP
Test: pull-down; GST-OsTopVIB preabsorbed to Glutathione Sepharose resin; purified pET-OsSpo11-4 precleared with GST resin; 0.5% NP-40 lysis buffer (20 mM Tris-HCl pH 8.0, 200 mM NaCl, 1 mM EDTA), 4°C, 6 h; western blot with antibody against pET-OsSpo11-4
Settings: both partners purified

- binding result: binds
B1: pET-OsSpo11-4 fusion protein (natural protein, Oryza sativa L. ssp. japonica, UniProt Q2QM00 1-487, looked up)
chain: MDDSTDDDSYHPRKHYAYDRQVSSSRWRTSREYIRGPGPETHTTESAQDGQDPPAGVYSYGYFSGSGNDPQVQGHFVPEIQKYNPYVIFKGEQLPVPIWELPEEKVQDFHDRYFIAKDKSRVEARKTLNRLLEGNINTIERGHGYKFNIPKYTDNMEFNEEVKVSLAKAGKTISRSFCNANQREVASRTGYTIDLIERTLGAGLNISKRTVLYTNKDLFGDQSKSDQAINDICALTNIRRGSLGIIAAEKGIVVGNIFLELTNGKSISCSIGVQIPHRLDQIKDVCVEIGSRNIEYILVVEKHTMLNYLLEMDYHTNNNCIILTGCGMPTLQTRDFLRFLKQRTGLPVFGLCDPDPEGISILATYARGSCNSAYDNFNISVPSICWVGLSSSDMIKLNLSETNYSRLSREDKTMLKNLWQDDLSDVWKRRIEEMISFDKKASFEAIHSLGFDYFATNLLPDMINKVREGYVQVQEKKEPQDTEASED
notes: OsSpo11-4, Oryza sativa L. ssp. japonica, predicted protein of 487 amino acids; full-length ORF amplified with primers P5 and P6, cloned into EcoRI/XhoI of pET-32a(+); fusion about 72 kD; Forward primer P5 lacks the ATG GAT that primer P15 has, so the insert may lack the first two codons; also called pET-Spo11-4
